The labels stand for the following.
B1: AE12-1 (antibody, V domains shown)
VH: EVQLVQSGAEVKKPGASVKVSCKASGYTFTSHGISWVRQAPGQGLDWMGWISPYSGNTNYAQKLQGRVTMTTDTSTSTAYMELSSLRSEDTAVYYCARVGSGPYYYMDVWGQGTLVTVSS
VL: QSALTQPRSVSGSPGQSVTISCTGTSSSVGDSIYVSWYQQHPGKAPKLMLYDVTKRPSGVPDRFSGSKSGNTASLTISGLQAEDEADYYCCSYAGTDTLFGGGTKVTVL
B2: AE12-1-Y (antibody, V domains shown)
VH: EVQLVQSGAEVKKPGASVKVSCKASGYTFTSHGISWVRQAPGQGLDWMGWISPYSGNTNYAQKLQGRVTMTTDTSTSTAYMELSSLRSEDTAVYYCARVGSGPYYYMDVWGQGTLVTVSS
VL: QSALTQPRSVSGSPGQSVTISCTGTSSSVGDSIYVSWYQQHPGKAPKLMLYDVTKRPSGVPDRFSGSKSGNTASLTISGLQAEDEADYYCYSYAGTDTLFGGGTKVTVL
B3: AE12-1-H (antibody, V domains shown)
VH: EVQLVQSGAEVKKPGASVKVSCKASGYTFTSHGISWVRQAPGQGLDWMGWISPYSGNTNYAQKLQGRVTMTTDTSTSTAYMELSSLRSEDTAVYYCARVGSGPYYYMDVWGQGTLVTVSS
VL: QSALTQPRSVSGSPGQSVTISCTGTSSSVGDSIYVSWYQQHPGKAPKLMLYDVTKRPSGVPDRFSGSKSGNTASLTISGLQAEDEADYYCHSYAGTDTLFGGGTKVTVL
B4: AE12-1-V (antibody, V domains shown)
VH: EVQLVQSGAEVKKPGASVKVSCKASGYTFTSHGISWVRQAPGQGLDWMGWISPYSGNTNYAQKLQGRVTMTTDTSTSTAYMELSSLRSEDTAVYYCARVGSGPYYYMDVWGQGTLVTVSS
VL: QSALTQPRSVSGSPGQSVTISCTGTSSSVGDSIYVSWYQQHPGKAPKLMLYDVTKRPSGVPDRFSGSKSGNTASLTISGLQAEDEADYYCVSYAGTDTLFGGGTKVTVL
B5: AE12-1-L (antibody, V domains shown)
VH: EVQLVQSGAEVKKPGASVKVSCKASGYTFTSHGISWVRQAPGQGLDWMGWISPYSGNTNYAQKLQGRVTMTTDTSTSTAYMELSSLRSEDTAVYYCARVGSGPYYYMDVWGQGTLVTVSS
VL: QSALTQPRSVSGSPGQSVTISCTGTSSSVGDSIYVSWYQQHPGKAPKLMLYDVTKRPSGVPDRFSGSKSGNTASLTISGLQAEDEADYYCLSYAGTDTLFGGGTKVTVL
B6: AE12-1-F (antibody, V domains shown)
VH: EVQLVQSGAEVKKPGASVKVSCKASGYTFTSHGISWVRQAPGQGLDWMGWISPYSGNTNYAQKLQGRVTMTTDTSTSTAYMELSSLRSEDTAVYYCARVGSGPYYYMDVWGQGTLVTVSS
VL: QSALTQPRSVSGSPGQSVTISCTGTSSSVGDSIYVSWYQQHPGKAPKLMLYDVTKRPSGVPDRFSGSKSGNTASLTISGLQAEDEADYYCFSYAGTDTLFGGGTKVTVL
B7: AE12-1-K (antibody, V domains shown)
VH: EVQLVQSGAEVKKPGASVKVSCKASGYTFTSHGISWVRQAPGQGLDWMGWISPYSGNTNYAQKLQGRVTMTTDTSTSTAYMELSSLRSEDTAVYYCARVGSGPYYYMDVWGQGTLVTVSS
VL: QSALTQPRSVSGSPGQSVTISCTGTSSSVGDSIYVSWYQQHPGKAPKLMLYDVTKRPSGVPDRFSGSKSGNTASLTISGLQAEDEADYYCKSYAGTDTLFGGGTKVTVL
B8: AE12-1-I (antibody, V domains shown)
VH: EVQLVQSGAEVKKPGASVKVSCKASGYTFTSHGISWVRQAPGQGLDWMGWISPYSGNTNYAQKLQGRVTMTTDTSTSTAYMELSSLRSEDTAVYYCARVGSGPYYYMDVWGQGTLVTVSS
VL: QSALTQPRSVSGSPGQSVTISCTGTSSSVGDSIYVSWYQQHPGKAPKLMLYDVTKRPSGVPDRFSGSKSGNTASLTISGLQAEDEADYYCISYAGTDTLFGGGTKVTVL

In patent US20160326240A1 one finds Kd, koff and kon data, which are given here for eight molecules.

A word on the Kd: it is a measure of binding affinity in units of concentration. For orientation: koff means the first-order rate constant of dissociation. A higher koff goes with a short-lived complex. Broadly, the kon is the second-order rate constant of association. Read a high kon as fast association.

The target of the assay is T1, Rat RGMa-His (rat) (UniProt D4A188).
T1 sequence: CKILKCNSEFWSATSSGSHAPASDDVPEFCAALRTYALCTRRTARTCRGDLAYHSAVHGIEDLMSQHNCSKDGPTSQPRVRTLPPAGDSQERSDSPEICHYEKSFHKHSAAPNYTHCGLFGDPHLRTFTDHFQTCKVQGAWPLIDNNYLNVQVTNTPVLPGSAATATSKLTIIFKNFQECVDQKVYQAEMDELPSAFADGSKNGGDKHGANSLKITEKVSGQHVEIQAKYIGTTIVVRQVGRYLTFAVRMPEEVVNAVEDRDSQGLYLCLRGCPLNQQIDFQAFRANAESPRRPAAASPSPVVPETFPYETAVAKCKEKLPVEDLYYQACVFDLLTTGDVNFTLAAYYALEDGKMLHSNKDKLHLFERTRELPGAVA
Nature of the assay: BIAcore. On the technique in general: SPR reads the build-up and loss of mass on a sensor chip optically.
B1 gave a Kd of 19 nM, a koff of 0.00048 s⁻¹ and a kon of 26000 M⁻¹ s⁻¹.

On to B2, for which the Kd stood at 5 nM, the koff came to 6.9e-05 s⁻¹ and the kon is 14000 M⁻¹ s⁻¹.

As to B3, the Kd was 8.6 nM, the koff was 0.00025 s⁻¹ and the kon worked out at 29000 M⁻¹ s⁻¹.

B4 showed a Kd of 15 nM, a koff of 0.00032 s⁻¹ and a kon of 220000 M⁻¹ s⁻¹.

B5 displayed a Kd of 12 nM, a koff of 0.00039 s⁻¹ and a kon of 32000 M⁻¹ s⁻¹.

The molecule B6 gave a dissociation constant Kd of 5.2 nM, an off-rate constant (koff) of 0.00014 s⁻¹ and an on-rate constant (kon) of 26000 M⁻¹ s⁻¹.

On to B7, for which the Kd is 17 nM, the koff is 0.00028 s⁻¹ and the kon is 16000 M⁻¹ s⁻¹.

With B8, the Kd worked out at 12 nM, the koff was determined as 0.00032 s⁻¹ and the kon came to 28000 M⁻¹ s⁻¹.
